Measured values: patent publication US20020034537A1, “Cationic diagnostic, imaging and therapeutic agents associated with activated vascular sites” (priority 2000, published 2002)
Like-named read-outs stand apart in the source and are kept apart here.

Experiments:
[1] = normal tissues, Adamson et al. (1988); cited from earlier work
[2] = Time constant of plasma clearance; assay type: in vivo, SCID mice; settings: i.v. bolus, arterial blood within 30 min
[3] = Isoelectric focusing of charge-modified proteins; assay type: physicochemical
Procedure: Isoelectric points of the proteins were determined by isoelectric focusing using polyacrylamide gel slabs on a vertical electrofocusing apparatus. pl was quantified by comparison with protein standards (Bio-Rad) after Coomassie Blue staining of the gels. The molecular weights of the proteins were analyzed by SDS-PAGE (Mini-Protean II; Bio-Rad) with and without reducing agent P-mercaptoethanol in the sample buffer.

[4] = Data from Yuan et al. (1995); cited from earlier work
[5] = Data from Yuan et al. (1995); cited from earlier work; remark: listed apart in the source

## (x-lactalbumin: protein, MW=14,176; net charge −10 (Adamson et al. 1988)
[1]
  microvascular permeability relative to ribonuclease: approximately 50%

## Anionized BSA: rhodamine-labeled bovine serum albumin anionized by succinylation
[2]
  Median K, time constant of concentration decay in the plasma: 40.8 100s

## Cationized BSA: rhodamine-labeled bovine serum albumin cationized by conjugation with hexamethylenediamine
[2]
  Median K, time constant of concentration decay in the plasma: 12.7 100s
[3]
  pI (range): 8.6-9.1

## Native BSA: fluorescently labeled native bovine serum albumin, data from Yuan et al. (1995)
[4]
  Median K, time constant of concentration decay in the plasma: 80.5 100s
[5]
  pI (range): 4.5
